# Measured values published in US20190032033A1 (HEPTARES THERAPEUTICS, published 2019).
# Where two headings read alike, the source gives them in different places.
# Columns and labels:
# [1] = biological target: T1, human adenosine A2A receptor (residues 1-308, N154A) (human, UniProt P29274 1-308); experiment: cell-based or functional assay
# [2] = biological target: T1, human adenosine A2A receptor (residues …); experiment: cell-based or functional assay; remark: listed apart in the source
# [3] = biological target: T2, C-terminally truncated human A2AR (residues 1-317, N154A) (human, UniProt P29274 1-317); experiment: cell-based or functional assay
# [4] = biological target: T3, human angiotensin II type 1 receptor AT1R (residues 1-359) (human, UniProt P30556 1-359); experiment: cell-based or functional assay
# T3 sequence (looked up): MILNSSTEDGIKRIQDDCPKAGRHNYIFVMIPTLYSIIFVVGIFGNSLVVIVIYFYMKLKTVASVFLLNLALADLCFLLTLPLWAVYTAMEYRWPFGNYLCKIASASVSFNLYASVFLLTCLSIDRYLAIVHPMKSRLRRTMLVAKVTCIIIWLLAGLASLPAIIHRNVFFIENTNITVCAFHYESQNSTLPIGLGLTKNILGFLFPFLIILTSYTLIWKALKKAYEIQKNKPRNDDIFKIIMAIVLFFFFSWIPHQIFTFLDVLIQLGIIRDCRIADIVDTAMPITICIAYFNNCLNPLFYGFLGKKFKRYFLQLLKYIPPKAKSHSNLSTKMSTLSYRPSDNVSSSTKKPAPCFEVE
# [5] = biological target: rat neurotensin receptor NTSR1 (residues 43-396) (rat, UniProt P20789 43-396); experiment: cell-based or functional assay
# [6] = biological target: T2, C-terminally truncated human A2AR …; experiment: thermostability assay, DM-solubilised NECA-bound A2AR
# [7] = biological target: T4, thioredoxin-A2AR fusion protein (human, UniProt P29274 6-316); experiment: analytical SEC of purified NECA-bound A2AR mixed with mini-Gs/q (1:1.2 molar ratio) and Coomassie-stained SDS-PAGE of fractions 10-20
# T4 construct: range 6-316; gp67 leader is cleavable; not shown: His10 tag, TEV protease cleavage site and thioredoxin
# [8] = biological target: β1AR-WT (wild type-like turkey β1 adrenergic receptor construct) (turkey, UniProt P07700 33-423, limits assumed); experiment: cell-based or functional assay
# [9] = biological target: T4, thioredoxin-A2AR fusion protein; experiment: analytical SEC of purified NECA-bound A2AR mixed with mini-Gs/q (1:1.2 molar ratio) and Coomassie-stained SDS-PAGE of fractions 10-20; remark: listed apart in the source
# T1 sequence (P29274 1-308 N154A): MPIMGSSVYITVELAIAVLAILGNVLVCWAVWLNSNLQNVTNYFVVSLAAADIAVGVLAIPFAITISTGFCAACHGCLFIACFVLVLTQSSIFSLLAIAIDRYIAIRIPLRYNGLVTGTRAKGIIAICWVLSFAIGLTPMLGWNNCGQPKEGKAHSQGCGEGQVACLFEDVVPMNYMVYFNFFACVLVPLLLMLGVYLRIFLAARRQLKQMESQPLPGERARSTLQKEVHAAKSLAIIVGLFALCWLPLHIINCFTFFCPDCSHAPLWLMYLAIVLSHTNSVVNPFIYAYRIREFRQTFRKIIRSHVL
# T2 sequence (P29274 1-317 N154A): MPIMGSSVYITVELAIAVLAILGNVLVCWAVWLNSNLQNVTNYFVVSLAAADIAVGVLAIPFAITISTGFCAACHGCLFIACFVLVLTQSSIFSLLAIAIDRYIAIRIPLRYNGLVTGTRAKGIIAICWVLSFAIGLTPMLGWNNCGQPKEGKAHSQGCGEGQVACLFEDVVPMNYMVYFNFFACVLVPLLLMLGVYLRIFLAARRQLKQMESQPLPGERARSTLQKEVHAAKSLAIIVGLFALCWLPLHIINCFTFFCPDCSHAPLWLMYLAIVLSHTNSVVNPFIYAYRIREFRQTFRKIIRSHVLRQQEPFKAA
# Sequence of β1AR-WT (wild type-like turkey β1 adrenergic receptor construct) (P07700 other isoform, or with tags, fused parts or gaps limits assumed): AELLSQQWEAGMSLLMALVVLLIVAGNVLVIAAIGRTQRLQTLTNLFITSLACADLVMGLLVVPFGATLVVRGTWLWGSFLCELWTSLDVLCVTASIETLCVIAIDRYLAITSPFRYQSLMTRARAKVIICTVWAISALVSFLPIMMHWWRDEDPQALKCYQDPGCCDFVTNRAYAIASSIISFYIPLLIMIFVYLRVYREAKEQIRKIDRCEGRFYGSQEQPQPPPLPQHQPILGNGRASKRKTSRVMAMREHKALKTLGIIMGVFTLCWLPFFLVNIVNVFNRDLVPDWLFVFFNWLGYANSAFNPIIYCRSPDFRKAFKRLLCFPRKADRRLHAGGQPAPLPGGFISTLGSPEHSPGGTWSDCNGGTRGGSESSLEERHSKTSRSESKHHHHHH
# T4 sequence (P29274 other isoform, or with tags, fused parts or gaps): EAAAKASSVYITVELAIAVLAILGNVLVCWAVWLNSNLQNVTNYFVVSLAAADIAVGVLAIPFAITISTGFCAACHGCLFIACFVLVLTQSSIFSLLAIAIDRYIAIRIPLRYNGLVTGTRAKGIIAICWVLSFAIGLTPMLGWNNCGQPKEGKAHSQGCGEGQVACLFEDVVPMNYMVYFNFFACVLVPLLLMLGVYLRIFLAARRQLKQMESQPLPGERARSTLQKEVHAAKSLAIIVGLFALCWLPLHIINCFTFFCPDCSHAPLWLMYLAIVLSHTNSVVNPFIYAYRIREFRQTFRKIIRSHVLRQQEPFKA
# Sequence of rat neurotensin receptor NTSR1 (residues 43-396) (P20789 43-396 limits assumed): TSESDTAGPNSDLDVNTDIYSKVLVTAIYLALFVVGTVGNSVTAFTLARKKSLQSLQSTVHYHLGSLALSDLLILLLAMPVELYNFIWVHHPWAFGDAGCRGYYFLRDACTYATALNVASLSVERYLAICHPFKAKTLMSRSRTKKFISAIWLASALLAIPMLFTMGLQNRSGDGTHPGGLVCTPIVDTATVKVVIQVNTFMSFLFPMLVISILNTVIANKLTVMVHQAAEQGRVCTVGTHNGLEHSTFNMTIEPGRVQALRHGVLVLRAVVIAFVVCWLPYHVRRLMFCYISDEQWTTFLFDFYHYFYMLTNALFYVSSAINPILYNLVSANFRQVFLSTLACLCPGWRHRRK
binder,measurement,setting,value
Mini-Gs414 (other) GIEKQLQKDKQVYRATHRLLLLGADNSGKSTIVKQMRIYHGGSGGSGGTSGIFETKFQVDKVNFHMFDVGGQRDERRKWIQCFNDVTAIIFVVDSSDYNRLQEALNDFKSIWNNRWLRTISVILFLNKQDLLAEKVLAGKSKIEDYFPEFARYTTPEDATPEPGEDPRVTRAKYFIRDEFLRISTASGDGRHYCYPHFTCAVDTENARRIFNDCRDIIQRMHLRQYELL,apparent Tm of DM-solubilised NECA-bound A2AR,[1],32.9 °C
same,"ΔTm of 3H-NECA-bound A2AR with mini-Gs414 against A2AR only, in decylmaltoside (DM)",[2],6.8 °C
same,"ΔTm of 3H-NECA-bound A2AR with mini-Gs414 against A2AR only, in dodecylmaltoside (DDM)",[2],7.2 °C
same,"ΔTm of 3H-NECA-bound A2AR with mini-Gs414 against A2AR only, in octylglucoside (OG)",[2],13.4 °C
"mini-Gs/q70 (other, also called mini-Gs/q chimera; Gs/q construct 70) GIEKQLQKDKQVYRATHRLLLLGADNSGKSTIVKQMRILHGGSGGSGGTSGIFETKFQVDKVNFHMFDVGGQRDERRKWIQCFNDVTAIIFVVDSSDYNRLQEALNDFKSIWNNRWLRTISVILFLNKQDLLAEKVLAGKSKIEDYFPEFARYTTPEDATPEPGEDPRVTRAKYFIRDEFLRISTASGDGRHYCYPHFTCAVDTENARRIFNDCKDIILQMNLREYNLV",apparent Tm of DM-solubilised 3H-NECA-bound A2AR (alone 26.9 °C),[3],27.5 °C
same,apparent Tm of digitonin-solubilised 125I-AngII-bound AT1R (alone 22.6 °C),[4],30.7 °C
same,apparent Tm of DDM-solubilised 3H-NTS-bound NTSR1 (alone 24.9 °C),[5],32.5 °C
same,binding result,[6],no binding (tested: 25 µM)
same,binding result,[7],no binding
Mini Gs393 (other) GIEKQLQKDKQVYRATHRLLLLGADNSGKSTIVKQMRILHGGSGGSGGTSGIFETKFQVDKVNFHMFDVGGQRDERRKWIQCFNDVTAIIFVVDSSDYNRLQEALNDFKSIWNNRWLRTISVILFLNKQDLLAEKVLAGKSKIEDYFPEFARYTTPEDATPEPGEDPRVTRAKYFIRDEFLRISTASGDGRHYCYPHFTCAVDTENARRIFNDCRDIIQRMHLRQYELL,apparent Tm of β1AR-WT complex in decylmaltoside (receptor alone 20.4 °C),[8],30.5 °C
same,apparent Tm of β1AR-WT complex in dodecylmaltoside (receptor alone 25.9 °C),[8],34.1 °C
same,apparent Tm of β1AR-WT complex in nonylglucoside (uncoupled receptor did not survive),[8],24.7 °C
same,apparent Tm of β1AR-WT complex in octylglucoside (uncoupled receptor did not survive),[8],19.7 °C
mini-Gs/q58 (other) MGHHHHHHENLYFQGIEKQLQKDKQVYRATHRLLLLGADNSGKSTIVKQMRILHGGSGGSGGTSGIFETKFQVDKVNFHMFDVGGQRDERRKWIQCFNDVTAIIFVVDSSDYNRLQEALNDFKSIWNNRWLRTISVILFLNKQDLLAEKVLAGKSKIEDYFPEFARYTTPEDATPEPGEDPRVTRAKYFIRDEFLRISTASGDGRHYCYPHFTCAVDTENARRIFAAVKDTILQLNLKEYNLV,apparent Tm of DM-solubilised 3H-NECA-bound A2AR (alone 26.9 °C),[3],26.9 °C
same,apparent Tm of DDM-solubilised 3H-NTS-bound NTSR1 (alone 24.9 °C),[5],25.1 °C
same,binding result,[6],no binding (tested: 25 µM)
same,binding result,[9],no binding
